Experimental data: US10428140B2, “Anti-EphA4 antibody” (EISAI R&D MANAGEMENT CO., LTD., priority 2015, dated 2019)

Tests used:
rat hippocampal neurons = experiment: Ligand-induced growth cone collapse in hippocampal neurons; assay type: cell-based; conditions: antibody A 0.1, 0.3, 1 μM; KYL peptide 10, 30, 100 μM
Description: Rat hippocampal neurons were prepared as described in Example 10 above. The cells were inoculated to a 96-well plate (Greiner Bio-One) coated with poly-L-lysine containing culture solution.
The growth cone collapse assay using the hippocampal neurons was conducted according to the following steps. The rat hippocampal neurons of culture day 2 inoculated to the 96-well dish (Greiner Bio-One) were treated with PBS (Wako Pure Chemical Industries), antibody A (0.1, 0.3, and 1 μM), or an EphA4 inhibitor KYL peptide (KYLPYWPVLSSL, 10, 30, and 100 μM, its synthesis was outsourced to Toray Research Center) for 15 minutes and then treated with goat anti-human Fcγ fragment IgG1 antibody (Jackson ImmunoResearch Laboratories)-preclustered mouse Ephrin A1-Fc chimera (R&D Systems, final concentration: 1 μg/mL) (ratio: 1:5) for 30 minutes. Then, the culture solution was removed, and 2% PFA (Wako Pure Chemical Industries)/4% sucrose (Wako Pure Chemical Industries)/PBS was added, and left standing for 20 minutes to fix the cells. The solution was removed, and the cells were washed with PBS three times, followed by the addition of 0.25% Triton X-100 (Wako Pure Chemical Industries)/PBS for cell penetration treatment for 15 minutes. […] Neurons forming growth cone were counted in 30 fields of view per sample to calculate the proportion of the number of neurons causing growth cone collapse.

[1] = tested on: mouse ES cell derived-motor neuron / variant human SOD1 (G93A)-expressing astrocyte coculture; experiment: Motor neuron protection in in vitro ALS model derived from mouse ES cells; assay type: cell-based; conditions: antibody A 10, 30, 100 nM; EphA4-Fc 3, 10, 30 nM; KYL peptide 1, 3, 10 μM; 2 days
Description: Mouse ES cells were maintained and cultured according to the following steps. Mouse ES cells (129×1/SvJ) cryopreserved at −80° C. were thawed in a thermostat bath and then diluted with a mouse ES cell culture medium (KnockOut(TM) DMEM (Gibco) containing 10% fetal bovine serum (FBS, Gibco), 0.1 mM β-mercaptoethanol (Gibco), 1 mM sodium pyruvate (Invitrogen), 2 mM L-glutamine (Invitrogen), 1% nonessential amino acids (Invitrogen), 100 units/mL penicillin-100 μg/mL streptomycin (Invitrogen), and 1000 units/mL ESGRO(R) leukemia inhibitory factor (Merck Millipore)) warmed to 37° C. Each cell suspension was centrifuged (1500 rpm, 3 min, room temperature), followed by the removal of the supernatant. The cells were suspended in a fresh medium, then transferred to a culture dish with feeder cells inoculated in advance, and maintained and cultured in a CO2 incubator (5% CO2, 37° C.).
Astrocytes were established from a mouse newborn and maintained and cultured according to the following steps. A two-day-old wild-type mouse newborn (C57BL/6JJmsSlc (Japan SLC)) and a hybrid mouse newborn of a wild-type mouse and a variant human SOD1 (G93A) Tg-(B6.Cg-Tg(SOD1_G93A)1Gur/J ([…])) mouse were each euthanized by inhalation anesthesia with isoflurane (Intervet) or decapitation. […]

B1: antibody A: mouse anti-EphA4 monoclonal antibody, IgG1/κ; heavy chain variable region SEQ ID NO: 11, light chain variable region SEQ ID NO: 13 (antibody, listed as Mus musculus, V domains shown)
VH: QIQLVQSGPELKKPGETVKISCKASGYTFTDYSMHWVKQAPGKGLKWMGWINTETGEPTYADDFKGRFAFSLETSASTAYLQINNLKNEDTATYFCARIPLYYYGSRYWYFDVWGAGTTVTVSS
VL: DIQMTQSPASLSVSVGETVTITCRASENIYRNLAWYQQKQGKSPQLLVYAATNLADGVPSRFSGSGSGTQYSLKINSLQSEDFGSYYCQHFWGTPWTFGGGTKLEIK
Rat hippocampal neurons
  suppression of growth cone collapse induced by mouse Ephrin A1 (in words): suppressed, in a concentration-dependent manner
[1]
  suppression of motor neuron death / motor neuron protective effect (in words): suppressed, in a concentration-dependent manner
